These results are taken from US20160257958.

The first data set deals with T1, biotinylated human D-hepcidin-25 (mirror-image peptide) (Homo sapiens) (UniProt P81172).
T1 sequence: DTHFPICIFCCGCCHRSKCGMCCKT
As to the kind of experiment: SPR. To be noted: 37 C, 1 mM Mg, 1 mM Ca.
Sequence “GCACUCGUAAAGUAGAGGGACCCAGUCCGGCGUGAUAGUGCCGAGUGC [223-C5-001 (D-RNA)]” came in with a Kd of 1.2 nM. The same measure, in the same setting: in the case of “CGUGUGUAAAGUAGAGGACAAUUGUCGGCGUGAUAGUGCCACACG [229-B1-001 (D-RNA)]” it was 0.5 nM.

Another data set addresses T2, human hepcidin-25 (L-peptide) (Homo sapiens) (UniProt P81172).
T2 sequence: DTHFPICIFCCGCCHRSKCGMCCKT
In words: SPR. To be noted: L-RNA; 5'-40 kDa PEG; 37 C, 1 mM Mg, 1 mM Ca.
Turning to “GCGCCGUAUGGGAUUAAGUAAAUGAGGAGUUGGAGGAAGGGCGC [238-D4-008-5'-PEG (NOX-H94)]”, the Kd came out at 0.64 nM. The sequence “GCGCGCGUAUGGGAUUAAGUAAAUGAGGAGUUGGAGGAAGGCGCGC [238-D4-002-5'-PEG]” registered a Kd of 0.53 nM.

“GCACUCGUAAAGUAGAGGGACCCAGUCCGGCGUGAUAGUGCCGAGUGC [223-C5-001-5'-PEG]”: the Kd came to 4.44 nM. In turn, “GCUGUGUAAAGUAGAGGACAAUUGUCGGCGUGAUAGUGCCACAGC [229-B1-002-5'-PEG]” registered a dissociation constant (Kd) of 1.92 nM. On the same count and under the same terms, in the case of “GGCCGGACAGCCGGGGGACACCAUAUACAGACUACGAUACGGCC [238-C4-006-5'-PEG]” it was 0.76 nM.

The data set is the same for the next values; noted with them: L-RNA; 37 C, 1 mM Mg, 1 mM Ca.
Take “GCUGUGUAAAGUAGAGGACAAUUGUCGGCGUGAUAGUGCCACAGC [229-B1-002 (L-RNA)]”: the Kd was 1.47 nM. In turn, “AGGCUCGGACAGCCGGGGGACACCAUAUACAGACUACGAUACGGGCCU [238-C4-001 (L-RNA)]” had a Kd of 0.9 nM. On to “AGCGUGUCGUAUGGGAUUAAGUAAAUGAGGAGUUGGAGGAAGGGCAUGCU [238-D4-001 (L-RNA)]”, for which the dissociation constant Kd amounted to 0.51 nM. Take “GCACUCGUAAAGUAGAGGGACCCAGUCCGGCGUGAUAGUGCCGAGUGC [223-C5-001 (L-RNA)]”: the Kd stood at 2.7 nM.

The same data set, now with this note: L-RNA; 37 C, data not shown.
Sequence “CGUGUGUAAAGUAGAGGACAAUUGUCGGCGUGAUAGUGCCACACG [229-B1-001 (L-RNA)]” registered a Kd of 1.25 nM.
